Reference: patent publication US20220289855A1 (University of California, published 2022)

Target: T1, integrin α4β1 (mouse, UniProt Q00651 41-1039; P09055 21-798)
T1 construct: whole, on cells
Assay: flow cytometry, soluble ligand on mouse Tregs
Description: Splenic lymphocytes were isolated from Foxp3^GFP mice and were washed and resuspended in HBSS containing 0.1% BSA and 1 mM Ca²⁺/Mg²⁺, prior to incubation with integrin ligands for […] at 37° C. in the presence of IL-2 (10 ug/ml), rat-PC61 (5 ug/ml, Bioxcell), rat-rIgG (5 ug/ml, Bioxcell), murine-PC61 (5 ug/ml) and murine-IgG (5 ug/ml, Bioxcell). Cells were then incubated with AlexFluor647-conjugated anti-human IgG (1:200) for […] at 4° C. Then cells were washed twice before flow cytometry analysis using an Accuri C6 Plus (BD Biosciences). Data were analyzed using FlowJo software.

T1 sequence (Q00651 41-1039, chain 1 of 2): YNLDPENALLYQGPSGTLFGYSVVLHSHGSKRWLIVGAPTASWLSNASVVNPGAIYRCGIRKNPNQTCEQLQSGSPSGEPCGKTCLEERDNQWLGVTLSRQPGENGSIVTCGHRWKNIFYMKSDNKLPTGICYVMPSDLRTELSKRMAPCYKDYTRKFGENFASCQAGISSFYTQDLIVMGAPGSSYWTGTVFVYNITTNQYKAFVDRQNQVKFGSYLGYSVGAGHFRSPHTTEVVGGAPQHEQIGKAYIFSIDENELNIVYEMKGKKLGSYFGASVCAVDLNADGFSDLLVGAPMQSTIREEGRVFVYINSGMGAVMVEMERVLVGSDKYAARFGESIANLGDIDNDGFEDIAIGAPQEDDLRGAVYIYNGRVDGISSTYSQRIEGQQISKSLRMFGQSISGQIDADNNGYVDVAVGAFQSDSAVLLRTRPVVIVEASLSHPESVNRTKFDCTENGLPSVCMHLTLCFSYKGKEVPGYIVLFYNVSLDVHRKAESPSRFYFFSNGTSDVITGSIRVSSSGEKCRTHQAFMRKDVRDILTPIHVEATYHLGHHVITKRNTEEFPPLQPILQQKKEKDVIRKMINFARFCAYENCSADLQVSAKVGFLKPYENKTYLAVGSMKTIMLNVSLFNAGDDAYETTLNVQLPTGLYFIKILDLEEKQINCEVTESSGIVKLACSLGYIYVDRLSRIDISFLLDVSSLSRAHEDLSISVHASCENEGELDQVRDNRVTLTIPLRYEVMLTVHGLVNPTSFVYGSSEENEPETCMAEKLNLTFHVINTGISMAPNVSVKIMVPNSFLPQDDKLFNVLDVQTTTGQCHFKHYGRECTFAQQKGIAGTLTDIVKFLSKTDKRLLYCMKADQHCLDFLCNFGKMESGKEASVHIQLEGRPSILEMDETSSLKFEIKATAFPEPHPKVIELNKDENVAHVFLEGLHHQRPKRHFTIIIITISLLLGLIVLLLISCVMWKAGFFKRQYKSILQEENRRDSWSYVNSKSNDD
T1 sequence (P09055 21-798, chain 2 of 2): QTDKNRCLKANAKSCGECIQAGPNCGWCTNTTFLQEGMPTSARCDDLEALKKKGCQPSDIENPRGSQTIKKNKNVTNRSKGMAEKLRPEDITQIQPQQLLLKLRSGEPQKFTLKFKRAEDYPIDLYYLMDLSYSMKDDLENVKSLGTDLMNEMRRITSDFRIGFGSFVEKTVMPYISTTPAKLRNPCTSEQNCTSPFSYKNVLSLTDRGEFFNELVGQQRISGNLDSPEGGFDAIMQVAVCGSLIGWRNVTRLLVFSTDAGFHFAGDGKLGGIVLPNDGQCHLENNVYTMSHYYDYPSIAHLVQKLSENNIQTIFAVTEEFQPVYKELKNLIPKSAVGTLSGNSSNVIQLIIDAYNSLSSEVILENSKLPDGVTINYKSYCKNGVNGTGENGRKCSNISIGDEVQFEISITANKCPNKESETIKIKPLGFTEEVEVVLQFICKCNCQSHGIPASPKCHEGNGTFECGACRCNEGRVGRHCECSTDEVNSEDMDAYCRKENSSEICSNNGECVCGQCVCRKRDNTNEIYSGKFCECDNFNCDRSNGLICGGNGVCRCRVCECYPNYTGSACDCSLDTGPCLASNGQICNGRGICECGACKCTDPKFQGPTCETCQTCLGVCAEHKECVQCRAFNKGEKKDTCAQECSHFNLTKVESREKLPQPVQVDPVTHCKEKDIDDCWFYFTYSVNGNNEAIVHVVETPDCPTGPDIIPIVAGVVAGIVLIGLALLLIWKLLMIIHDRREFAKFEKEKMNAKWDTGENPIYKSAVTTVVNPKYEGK

binding result: binds
B1: purified mouse VCAM-Fc (Fc fusion, UniProt P29533 25-698, looked up)
chain: FKIEISPEYKTIAQIGDSMALTCSTTGCESPLFSWRTQIDSPLNAKVRTEGSKSVLTMEPVSFENEHSYLCTATCGSGKLERSIHVDIYSFPKDPEIQFSGPLEVGKPVTVKCLAPDIYPVYRLEIDLFKGDQLMNRQEFSSEEMTKSLETKSLEVTFTPVIEDIGKALVCRAKLHIDQIDSTLKERETVKELQVYISPRNTTISVHPSTRLQEGGAVTMTCSSEGLPAPEIFWGRKLDNEVLQLLSGNATLTLIAMRMEDSGVYVCEGVNLIGRDKAEVELVVQEKPFIVDISPGSQVAAQVGDSVVLTCAAIGCDSPSFSWRTQTDSPLNGVVRNEGAKSTLVLSSVGFEDEHSYLCAVTCLQRTLEKRTQVEVYSFPEDPVIKMSGPLVHGRPVTVNCTVPNVYPFDHLEIELLKGETTLMKKYFLEEMGIKSLETKILETTFIPTIEDTGKSLVCLARLHSGEMESEPKQRQSVQPLYVNVAPKETTIWVSPSPILEEGSPVNLTCSSDGIPAPKILWSRQLNNGELQPLSENTTLTFMSTKRDDSGIYVCEGINEAGISRKSVELIIQVSPKDIQLTVFPSKSVKEGDTVIISCTCGNVPETWIILKKKAKTGDMVLKSVDGSYTIRQAQLQDAGIYECESKTEVGSQLRSLTLDVKGKEHNKDYFSPE
notes: also called VCAM-1; soluble VCAM-1; not shown: Fc part, detected with anti-Human Fc
